According to article PMC5498567:

System: T1, BsmT (Stenotrophomonas maltophilia ATCC 13637 (CGMCC 1.1788 in supplement)), ORF:ed0b4815
T1 sequence: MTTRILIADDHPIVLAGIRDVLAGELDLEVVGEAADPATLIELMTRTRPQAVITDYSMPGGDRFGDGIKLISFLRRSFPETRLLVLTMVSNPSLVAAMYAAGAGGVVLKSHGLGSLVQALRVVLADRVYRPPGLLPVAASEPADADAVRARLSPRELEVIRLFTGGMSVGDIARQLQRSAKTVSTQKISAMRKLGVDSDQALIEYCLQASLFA
Test: EMSA
Settings: EMSA: 1 fmol 32P-labelled dsDNA with BsmT in reaction buffer at 28 °C; buffer composition, salt and pH not given (protein storage buffer 50 mM Tris-HCl, 0.5 mM …)

Question: “GTGCCCGGCCAATGTCGGTACAGGAAACCCCCGCTTCGGCGGGGGTTCCTTTTTTTGCCACCTGAACGGTGCCCGCGTGCAGGCTCCGGGCCGGTCGGCCAGCCGGGGATTTTAGGAAACAGCTGATTCCGCGCCGTCCGCGCCGCTTCCTAGCATCGTTGC (double strand)” was tested. Which binding did it give?
Answer: binds
